# Measurements reported in the RNAGym collection of RNA variant scans (doi:10.7554/elife.90254).
# B1: LINE1-full (parent)
# chain: UACGUAGGUGGUUUUCCCCUGAUAGUGCUAAGGGGGCCUGGAAGUUUGGACUGGGCAGAGCUCAACACAGCGUGGCAAAGUGGCUGUGGCUAGACUGCCUCUCUGGAUUCCUCGUCACUCAGCAGGGCAUCUCUGAGAGAAAUGCC
# Variants of: B1
# Experiment: self-cleavage, relative activity (ratio to wild type); higher = more cleavage; in vitro, sequencing; the parent is a self-cleaving ribozyme
row,Variant,self-cleavage
1,C133A U143C,1.67
2,C3U A59U,0.56
3,U13C G122A,1.5
4,A59G G114U,0.07
5,U26G U47C,1.16
6,C61U C76U,0.04
7,G58A U62C,0.08
8,A50C A77U,0.35
9,U1C G36A,1.06
10,U13C G53U,1.11
11,A57U C120A,0.05
12,U47A A59U,0.81
13,G75A G135A,1.18
14,A30U U104C,1.31
15,A94G A140U,0.33
16,U85A U112C,0.04
17,G33A G83A,0.92
18,U26A U100C,1.07
19,C19A U134C,0.67
20,U81G U87A,0.15
21,A22G U119C,1.43

row,Variant,self-cleavage
1,A30G C123A,1
2,A59U C123U,0.8
3,C38U A64U,0.35
4,U23C A94G,0.37
5,U73A U102C,0.97
6,G55A A57G,0.15
7,G36A A69G,0.34
8,G89A U143C,0.03
9,U20C U23A,1.81
10,U108A A124G,1.55
11,A78G G106U,0.66
12,A24U G80C,1.41
13,U1C U46C,1.11
14,A64U A79U,0.64
15,U46C G55A,0.59
16,A117C A141G,2.57
17,G21A C118U,1.07
18,A77G C145U,2.12
19,A67U G88U,0.02
20,U73A U85C,0.1
21,U14G A77G,0.57

row,Variant,self-cleavage
1,G89A U115C,0.04
2,A31C U45G,0
3,A59G A138G,0.1
4,U15C A141U,1.58
5,C90U A124G,0.02
6,C76U A140G,2.36
7,U9A C51A,1.47
8,U39A U45C,1.58
9,G82A G86U,0.1
10,G41A U134C,1.15
11,U91C U115C,0.83
12,U104A U119A,1.23
13,A79G A138U,0.85
14,A24G U100C,1.32
15,G44A U100A,0.85
16,U81A U130C,2.43
17,G114U A141G,1.86
18,G127C A138G,1.31
19,U108A A129G,0.99
20,U52C G54A,0.74
21,G10A U104C,0.37

row,Variant,self-cleavage
1,U46G A78G,0.6
2,G54A U102C,0.33
3,G40A A142G,0.79
4,G97C U108A,0.14
5,U20A U62A,0.07
6,U13C G75A,1.16
7,G55C U115C,0.26
8,G72A A141U,1.42
9,A22G U115G,1.23
10,A22U U134A,1.15
11,A43G A79U,1.8
12,A24U C51U,0.84
13,C123G C133A,1.46
14,A2G G21C,1.04
15,A2U A43G,1.07
16,A121G C128U,1.6
17,C38U A57U,0.15
18,G8A C131A,0.51
19,U47A A121C,1.49
20,A6U G105U,1.71
21,G82U U143C,1.72
